Reference: the supplement of paper PMC9170038

The sequences below were run on K4 kissing-loop RNA reporter (assay: apparent KD of K4 kissing-loop reporter; higher = weaker reporter binding). Settings: Eterna round: R107; input ligand: FMN 200 uM.
Method: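 RNA-MaP round R107: designed RNA switches with theophylline, tryptophan, arginine or FMN aptamers are transcribed on-chip within common flanks. They are titrated with a labelled K4 kissing-loop RNA reporter in RNA-MaP buffer (100 mM Tris pH 7.5, 80 mM KCl, 4 mM MgCl2), without ligand or with the indicated ligand. Median apparent KD per design.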
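Also: bound reporter read as fluorescence of individual clusters on recovered sequencing chips by microscopy, with normalized cluster intensities fitted with a binding model.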

Point of comparison: “UUUGGUUUCUCGGCCGCCACUCGUUGUCUAUCGGCUUCAGGGAUAUAGUGAUGUUAUGUAUAGAAGAGGACCGGGAGAAGGUUCC [ExTryptoB.Dy]”, “apparent KD of K4 kissing-loop reporter” value 217 nM. Against it:
- UGUCAUUGGUCGGCCGCCACUUCGUGUAGAGUGAUGUUUUGUAGGACGGAUCGAAAGAUCUGUCGGAGGACCGGGACCGAUGACU [FiskerMod 17 - Jieux - Same State - Tryptophan B] — within 1.5-fold, 228 nM
- UGUACCGAGUCAGGAUAUGGCGUCGAAAGACGAAUGCUAGUGAUGUUAGGGAUCUGCGAAAGCAGUCCAGAAGGGACUUGGUACU [FmnBS 26 G36] — 1.8-fold higher, 381 nM
- AGGCACGAGCAAGGAUAUCGAGUAGAGUGAUGUUCUGCCUGGGUUGGCUCGUAAGAGCCUUCUCAGCGAGAAGGUGCUCGUGCCU [#2 Same State - FMN A Attempt #20 (HarryS)] — the same, 217 nM
- GCGCGGCAGGCGGCCGCCACUCUGACGAGCCACAGUGAUGUUGUGGUCGGAGAAACGUCUUCAUAGAGGACCGGGUUUGUUGUUC [Same State Typtophan A GF 25] — within 1.5-fold, 215 nM
- ACGAUUUACAGAAGGAGCGUGUAUUUAACUACAAUUAUCAUAGCGAGUGAUGUUCGUUAUACACAGGUAGGUCGCUGUAUAUCGA [JR_ExcArginiB_Sub012] — 1.7-fold higher, 364 nM
- GUAUCGCUAGGAGGAUAUUUCAAUUUGACUCUUUGAGUUAUUACGGAGUGAUGUUCCGAUUUACGGAAAGAAGGCCUAGUGAUAC [FMN B 12] — 1.6-fold lower, 140 nM
- AAUUCUUAUCUUAGUUGAUUUCUAAUUAAACGAGGACCGGUACGGCCGCCACUCGGUUAUGAGUGAUGUUCAUGGAAUUACAUAA [JR_SSTryptoA_Sub019] — 1.9-fold higher, 407 nM
- UGGAUAUCGUUUAGUCUGGUGAGGUCAGAUACCAGACUAGCGAUAGUCCCUUGGCAGCUGAUUAUGAUUGAGUGAUGUUCAAUCG [Theo A Ex t9a] — within 1.5-fold, 179 nM
- AGACGAGAUGAAGGAUAUGCGGACAAAGUGAUGUUUUGUCCGAAAGUAGGCAGUAAUAUCGAAAAUGCAGAAGGUCAAGAACAUA [theeternabot_exclusion_KL_FMN_B_36] — 1.6-fold lower, 135 nM
- GGAUAGGAUAGAGGAUAUGGUAUAUGCAAGAAUAACUUGUCAUGUAAAUCCAUGAGGAGUGAUGUUCCAGAAGGCUGUCCUAUCG [MatMod 10 - Jieux - Exclusion - FMN B] — 3-fold higher, 646 nM
- UCCUACGAGGUAACGUGGAUAUCUCGUUGCAAGGAUAUCUGGAAACAGAGAAGGUGCAACAUUAUCGGCAGUGAUGUUGCUGACC — 3.3-fold higher, 711 nM
- UCGCAAAAGUCGGCCGCCACUCCGGGCCCUAUAAAUGGGCGCAGUGAUGUUGCGGCUAGGCCUCUGAGGACCGGGACUUUGAAGA [Esesbior] — 2.1-fold lower, 101 nM
- AAAAUAAACCAGUGAUGUUGGUGUCUAGAUACCAGCGACGAAAGUCGCCCUUGGCAGCUGUGGACGUACAAAAUAAGUACGUCCU [MatMod 5 - Jieux - Same State - Theophylline A] — 2.6-fold higher, 564 nM
- UGAUACCAGACGGCCGCCACUCCCGCAGGUCAAAGACCUGCGAAGAAGGUUUUUUAGUGAUGUUGGAGGACCGGGUCUGGUAUCU [FiskerMod 20 - Jieux - Exclusion - Tryptophan B] — within 1.5-fold, 311 nM
- AGUAGUUGGGCGGCCGCCACUGGAACAGCUUUGUCAAAGACAGAGCACUAGAGUGAUGUUCUAGCUAGGACCGGGUCCAACUACA [whbob_SS_Tryp_B_t17] — 2.1-fold higher, 460 nM
- AUACGCGAUAGCGUAUAUAACUUUUCAGAAGGAGCGUGGAAGUACACAGGUAGGUCGCUGAAUAUAGGACUAGUGAUGUUAGUUA [JR_Nu_SSArginiA_Sub025] — within 1.5-fold, 195 nM
- UGUGAUGUUGUGAUGUUUAGUGUUGUUGGGCAGGAUAUUGUAGAGGCGAGAAGGGCUUGUGUGAUGUAUGAGUGAUGUUUGUAGU [cffdmullin] — within 1.5-fold, 177 nM
- AGAGAUAUAUGAGGAUAUGAGAUAGUUAAUGAGUGAGUUAUAGUGUAGUUUGGUUAGUGAUGUUAUUUAGAAGGCGUGAGUGAUG [reefmullin] — 1.6-fold lower, 140 nM
- AGGGAACGCACGGAUACCAGACUCAUAGUGAUGUUGUGGGUAUAAAUUAGCGCAUACACAGUCCCUUGGCAGCCGCUGAAUGGCC [theeternabot_exclusion_KL_Theo_B_1] — 3.8-fold higher, 829 nM
- GGAUAGGAUAGAGGAUAUGGAAAACACAAAAGUGACUUGUUGUGUUUAUCCAUAGGGAGUGAUGUUCCAGAAGGCUGUCCUAUCG [MatMod 23 - Jieux - Exclusion - FMN B] — within 1.5-fold, 229 nM
- GUGAUAUCGCAAGGAUAUCCAAUUUCUGCGGAUAAGUGAUGUUUGGCGCCGCCUCAGUUAUGGCAAGGAGAAGGUGCGGCCUAGC [theeternabot_sameState_KL_FMN_B_28] — 2.2-fold higher, 473 nM
- AGGAUCCGUCGACAAAAGUCGACAUAAACCGAGGAUAUGACGAAAGUCAGAAGGUGGUCAUAAGACCAGUGAUGUUGGUGGAUCC [FmnA 14 #SwitchBubble #K4Late] — 5.8-fold higher, 1250 nM
- AGGAUAUAGUGAUGUUAUAUAAGAAGAAAACGAGGACCGGUACGGCCGCCACUCGAAGCGGCUACUAAGAGGGAAAGAAGAGGAA [ExTryptoA.A] — within 1.5-fold, 174 nM
- AAAGAGUCCUGAGCCGAAGAAGAAGGCGGACGAGGACCGGUACGGCCGCCACUCGAAAGGAGUGCGGCUGAGUGAUGUUUGGCCG [Tryptophan A (C-G optomized)] — 1.6-fold higher, 342 nM
- AGUGGACGUUACCGGAGUGAUGUUUCGGAUACCAGACACGAAAGUGUCCCUUGGCAGCCGUAGUGAUGUUACGGAGUUCACUAAA [KL-XTheo-A12 #KL 2] — 1.7-fold lower, 125 nM
- AAAUCGUUCAGAAGGAGCGUGAAUUAUUCUUAAUUAUAUUAUACGAGUGAUGUUCGUGUUUCACAGGUAGGUCGCUGAUCGAUAA [JR_SSArginiB_Sub005] — 2.3-fold lower, 94.4 nM
- UGUCAUUGGUCUGAUACCAGUUAGCGCGAUAAGCGCAAAACUGGAGUGAUGUUCCCAAAUAACCCUUGGCAGCAGACCGAUGACU [MAT - Same State Theophlline B - Mod of Eli - D13] — 1.6-fold higher, 337 nM
- UGUGAACAAAAGUAGAGUGGACCACUAUAGCGAGGACCGGUACGGCCGCCACUCGUACAUGAAUUCAGUGAUGUUGAAAAGAGCU [whbob_EX_Tryp_A_t13] — within 1.5-fold, 294 nM
- GGAUCUUCCAGUGAUGUUGGUUAAUAUAUCAAGGAUAUGACGAAAGUCAGAAGGUGAAAGACUGGACAAAGUCCAGUCGGAUCCA [KL-SSFMN-A19] — 2-fold higher, 444 nM
- UAAUAUCCGUCGGCCGCCACUCACUAGUGAUGUUAGAGGAGUGAUGUUCCACGAGUGAUGUUCGAGAGGACCGGGACGGACGAUG [7th] — 2.9-fold lower, 75.1 nM
- AAGUAGAUCAAGAUCUAGUAUCUAGAUCAACGAGGACCGGUACGGCCGCCACUCGAAUAAUAGAGUGAUGUUCUAAGAUCUACAA [AK1.4 SS Tryptophan A] — 4.1-fold higher, 898 nM
- GCGCGUCAUGUCAGCGGAGACACUGUCGAUACCAGCGCCGCAAGGCGCCCUUGGCAGCGACGCGCUGGAGUGAUGUUCCAGCGUG [#2 Exclusion - Theophylline A Attempt #15 (HarryS)] — within 1.5-fold, 171 nM
- AAUAAGGUCGCCGAUACCAGCGCAGGCAGAGCAAAGCUCUGCCUAGUAGUGAUGUUACUGCGCCCUUGGCAGCGGUGGCACGACC [Omei KL Theo B SS C v4] — 4-fold higher, 863 nM
- AUUUAAUGUAUAGAUUAUAUACAUAAUUCAGAGGAUAUGCGAAGAAGCAGAAGGCUGGUUGCAGUGAUGUUGCUUUUAUAAUUUA [JR_SSFMNA_Sub009] — 6.6-fold lower, 32.8 nM
- AGGCACGAGCAAGGAUAUCGAGUAGAGUGAUGUUCUGCCUGGGUUGGCUCGGAAGGGCCUUCCCAGCGAGAAGGUGCUCGUGCCU [#2 Same State - FMN A Attempt #16 (HarryS)] — within 1.5-fold, 189 nM
- ACUGAGCAUGCGGCCGCCACUUCAGAACGUCGCCCAAAGGGCGACGCCUCCAGAGUGAUGUUCUGGAGGACCGGGCAUGUUCAGA [Omei KL Tryp B Exc A v1] — 2.5-fold higher, 540 nM
- AAUGGCGAGUGAUGUUCGCCCACCAAUGAUACCAGUGCCAUCGGACACCCUUGGCAGCAUACGGGCAGUGAUGUUGCUCUUGGAA [Exclusion Theophylline A GF 26] — within 1.5-fold, 185 nM
- CCUUGGAUUAGCUGUACUUUUCUACGGGAUACCAGUGCGUAACACCACCCUUGGCAGCCCGAUUACCGGCAGUGAUGUUGCCUCU [theeternabot_sameState_KL_Theo_A_41] — within 1.5-fold, 185 nM
- UCCUGCAAUCGACCACGAAAGUGGAUCGAUACCAGAGUCGAAAGACUCCCUUGGCAGCGAGUGAUGUUCGAGCAGGUAAAAUAAA [#SwitchBubble 23 #K4Late] — 3.3-fold higher, 713 nM
- AAGCAGUCACUCGAAAUCAUCAAAGAUGAACGAGGACCGGUACGGCCGCCACUCGGAGUGAUGUUCCGAAGACUGCAAAAUAAAA [MatMod 2 - Jieux - Exclusion - Tryptophan A] — within 1.5-fold, 307 nM
- AGAAGAGUGAUGUUCUUCUAUAUCUCAGAAGGAGCGACAUAAAUGUCAGGUAGGUCGCUGAGAUGAAAUCUCACACAGAUCUUGG [Arg A SS t8] — 1.7-fold lower, 127 nM

Same assay, conditions: Eterna round: R107; input ligand: arginine 13.2 mM

Point of comparison: “AGACGAGAUGAAGGAUAUGCGGACAAAGUGAUGUUUUGUCCGAAAGUAGGCAGUAAUAUCGAAAAUGCAGAAGGUCAAGAACAUA [theeternabot_exclusion_KL_FMN_B_36]”, “apparent KD of K4 kissing-loop reporter” value 173 nM. Against it:
- UGUCAUUGGUCGGCCGCCACUUCGUGUAGAGUGAUGUUUUGUAGGACGGAUCGAAAGAUCUGUCGGAGGACCGGGACCGAUGACU [FiskerMod 17 - Jieux - Same State - Tryptophan B] — within 1.5-fold, 139 nM
- UGUACCGAGUCAGGAUAUGGCGUCGAAAGACGAAUGCUAGUGAUGUUAGGGAUCUGCGAAAGCAGUCCAGAAGGGACUUGGUACU [FmnBS 26 G36] — 2.7-fold higher, 471 nM
- AGGCACGAGCAAGGAUAUCGAGUAGAGUGAUGUUCUGCCUGGGUUGGCUCGUAAGAGCCUUCUCAGCGAGAAGGUGCUCGUGCCU [#2 Same State - FMN A Attempt #20 (HarryS)] — 3-fold higher, 511 nM
- GCGCGGCAGGCGGCCGCCACUCUGACGAGCCACAGUGAUGUUGUGGUCGGAGAAACGUCUUCAUAGAGGACCGGGUUUGUUGUUC [Same State Typtophan A GF 25] — within 1.5-fold, 186 nM
- ACGAUUUACAGAAGGAGCGUGUAUUUAACUACAAUUAUCAUAGCGAGUGAUGUUCGUUAUACACAGGUAGGUCGCUGUAUAUCGA [JR_ExcArginiB_Sub012] — 2.1-fold higher, 367 nM
- GUAUCGCUAGGAGGAUAUUUCAAUUUGACUCUUUGAGUUAUUACGGAGUGAUGUUCCGAUUUACGGAAAGAAGGCCUAGUGAUAC [FMN B 12] — within 1.5-fold, 170 nM
- AAUUCUUAUCUUAGUUGAUUUCUAAUUAAACGAGGACCGGUACGGCCGCCACUCGGUUAUGAGUGAUGUUCAUGGAAUUACAUAA [JR_SSTryptoA_Sub019] — 3.5-fold higher, 601 nM
- UGGAUAUCGUUUAGUCUGGUGAGGUCAGAUACCAGACUAGCGAUAGUCCCUUGGCAGCUGAUUAUGAUUGAGUGAUGUUCAAUCG [Theo A Ex t9a] — within 1.5-fold, 154 nM
- GGAUAGGAUAGAGGAUAUGGUAUAUGCAAGAAUAACUUGUCAUGUAAAUCCAUGAGGAGUGAUGUUCCAGAAGGCUGUCCUAUCG [MatMod 10 - Jieux - Exclusion - FMN B] — 1.9-fold higher, 324 nM
